The values that follow come from patent US20220169732A1 (BIOND BIOLOGICS, published 2022).

Where no end group is shown, it is not given here.

This experiment deals with T1, BSA conjugated CD28 stalk region dimeric peptide (also: dimer through the cysteine, BSA conjugated via C-terminal Lys by hydrazide chemistry).
T1 peptide: GKHLCPSPLFPGPSKPK
Nature of the experiment: ELISA. A general note: An ELISA detects its analyte on a solid surface through an enzyme-linked reagent.

B1: antibody M9 (antibody, V domains shown)
VH: DVKLVESGGGLVKLGGSLKLSCVASGFTFSSYYMSWVRQTPEKRLEWVATISDGGDNTYYAGTVTGRFTISRDFAKNTLYLQMNSLTSEDTAVYYCARIHWPYYFDSWGQGTTLTVSS
VL: QFVLSQSPAILSASPGEMLTMTCRASSSVSYMNWYQQKPGSSPKPWIYATSDLASGVPARFSGSGSGTSYSLTISRVEAEDAATYYCQQWSSHPPTFGGGTKLEIR
notes: Full-size mouse antibody raised in CD1 mice against the dimeric stalk peptide; detected with anti mouse IgG; also called clone M9; anti-cleavage antibody M9
B1 displayed an IC50 of 9 ng/mL.

By IC50 is commonly meant the concentration that inhibits the measured activity by half. A higher IC50 goes with lower potency.
